The target in assay [1] is T1, mouse ROR1 (mouse, UniProt Q9Z139 30-403, limits assumed).
T1 construct: also called mouse ROR1 protein
Kind of assay: SPR (Biacore 3000), mouse ROR1 on CM5 chip, IgG injected, 1:1 Langmuir. How it is done: (§1) To more quantitatively analyze the binding ability of the anti-ROR1 antibody to ROR1, SPR (surface plasmon resonance) was performed. A Biacore 3000 device (GE Healthcare) was used. Using the amine coupling method, human ROR1 or mouse ROR1 was diluted with 10 mM sodium acetate, pH 4.5 and immobilized on a CM5 sensor chip (GE Healthcare) at 300 response units (RU). The activated portion remaining on the surface of the sensor chip was deactivated by adding 1 M ethanolamine-HCl (pH 8.5).
For orientation: SPR reads the build-up and loss of mass on a sensor chip optically.

Assay [2] has as its target T1, mouse ROR1. Kind of assay: ELISA, IgG on coated mouse ROR1, OD450. How it is done: (§2) A 96-well plate was coated at 4° C. for 16 hours with each of human ROR1 and mouse ROR1 proteins at a concentration of 2 μg/ml and then blocked using […]. […] After washing with PBST and distilled water, binding at room temperature for 1 hour using a goat-derived HRP-conjugated anti-human antibody (Invitrogen, 31482, Goat anti-Human IgG F(ab′)₂ Secondary Antibody, HRP) and then washing again using PBST and distilled water were performed. After color development by adding TMB substrate solution (Thermo Scientific, 34029, 1-Step™ Ultra TMB-ELISA Substrate Solution), the color reaction was stopped with stop solution (Invitrogen, SS04, ELISA Stop Solution), and the absorbance was measured at OD 450 nm. It was confirmed that the anti-ROR1 antibody of the present invention and the modified antibody thereof with improved biological and physical properties […] to human ROR1 and mouse ROR1 (FIG. 2).
(An ELISA detects its analyte on a solid surface through an enzyme-linked reagent.)

The target of assay [3] is T2, human ROR1 (human, UniProt Q01973 30-403, limits assumed).
T2 construct: also called human ROR1 protein
Kind of assay: ELISA, IgG on coated human ROR1, OD450. How it is done:
as §2

The target in assay [4] is T2, human ROR1. Kind of assay: SPR (Biacore 3000), human ROR1 on CM5 chip, IgG injected, 1:1 Langmuir. How it is done:
as §1

Another assay addresses T3, FZD+KRD (human, UniProt Q01973).
T3 construct: frizzled plus kringle domains, His tag; also called FK domain; human ROR1-frizzled-kringle domain
Kind of assay: ELISA, IgG on coated domain, OD450. How it is done: (§3) ELISA was performed to analyze the binding domain using the IgG antibody of the selected clone.
(§4) After washing with PBST and distilled water, binding at room temperature for 1 hour using a goat-derived HRP-conjugated anti-human antibody (Invitrogen, 31482, Goat anti-Human IgG F(ab′)₂ Secondary Antibody, HRP) and then washing again using PBST and distilled water were performed. After color development by adding TMB substrate solution (Thermo Scientific, 34029, 1-Step™ Ultra TMB-ELISA Substrate Solution), the color reaction was stopped with stop solution (Invitrogen, SS04, ELISA Stop Solution), and the absorbance was measured at OD 450 nm. The anti-ROR1 antibody clone binding to each domain was analyzed through ELISA (FIG. 3).

A further assay concerns the target T4, FZD (human, UniProt Q01973).
T4 construct: frizzled domain, His tag; also called Frizzled domain; human ROR1-frizzled domain
Kind of assay: ELISA, IgG on coated domain, OD450. How it is done: as §3, §4

Another assay addresses T5, Ig-like (human, UniProt Q01973).
T5 construct: Ig-like domain, His tag; also called Ig-like domain; human ROR1-immunoglobulin domain
Kind of assay: ELISA, IgG on coated domain, OD450. How it is done: as §3, §4

Assay [5] deals with T6, ROR1 expressed on cell surface (Jeko-1 cell line, AMB-LC-0003T and AMB-LC-0002T patient-derived lung cancer … (human, UniProt Q01973 30-937)). Kind of assay: cell-based or functional assay.
Assay [6] has as its target T6, ROR1 expressed on cell surface (Jeko-1 …). Kind of assay: cell-based or functional assay. The source holds these as a separate data set.

Where two headings read alike, the source gives them in different places.

This note sets out measurements from patent publication US20260028400A1 (AIMED BIO, published 2026).

By Kd is commonly meant the free concentration of one partner at which half of the binding sites on the other are occupied at equilibrium, for simple one-to-one binding. Read a high Kd as a looser complex. A word on the koff: it is the first-order rate constant of dissociation. Read a low koff as slow dissociation. Usually kon stands for a measure of how fast the partners come together. Read a high kon as faster complex formation. For orientation: EC50 (read off the curve) means the concentration that produces a half-maximal response. Lower therefore signals greater potency.

T1 sequence (Q9Z139 30-403 limits assumed): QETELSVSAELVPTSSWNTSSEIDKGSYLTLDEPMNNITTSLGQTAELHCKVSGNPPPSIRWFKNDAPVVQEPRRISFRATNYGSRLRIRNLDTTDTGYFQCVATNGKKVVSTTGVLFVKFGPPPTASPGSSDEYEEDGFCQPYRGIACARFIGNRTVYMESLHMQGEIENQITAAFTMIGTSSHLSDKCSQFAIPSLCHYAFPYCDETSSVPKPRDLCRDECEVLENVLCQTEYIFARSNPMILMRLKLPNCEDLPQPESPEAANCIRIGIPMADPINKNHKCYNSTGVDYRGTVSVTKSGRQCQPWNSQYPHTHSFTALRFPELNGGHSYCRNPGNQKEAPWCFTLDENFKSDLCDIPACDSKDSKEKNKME
T2 sequence (Q01973 30-403 limits assumed): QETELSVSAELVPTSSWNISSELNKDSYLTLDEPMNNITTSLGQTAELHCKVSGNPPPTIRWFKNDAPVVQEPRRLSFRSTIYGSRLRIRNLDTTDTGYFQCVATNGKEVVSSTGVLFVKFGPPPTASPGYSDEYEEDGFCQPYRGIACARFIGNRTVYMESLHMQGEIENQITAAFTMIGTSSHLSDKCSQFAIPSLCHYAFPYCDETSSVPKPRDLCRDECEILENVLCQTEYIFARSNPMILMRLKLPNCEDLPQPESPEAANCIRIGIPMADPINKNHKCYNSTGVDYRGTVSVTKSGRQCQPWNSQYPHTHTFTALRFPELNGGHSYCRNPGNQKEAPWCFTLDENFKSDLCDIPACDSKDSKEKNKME
T5 sequence (Q01973 39-151 limits assumed): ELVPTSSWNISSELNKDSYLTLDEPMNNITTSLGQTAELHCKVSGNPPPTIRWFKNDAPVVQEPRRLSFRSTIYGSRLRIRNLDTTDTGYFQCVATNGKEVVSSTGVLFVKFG
T6 sequence (Q01973 30-937): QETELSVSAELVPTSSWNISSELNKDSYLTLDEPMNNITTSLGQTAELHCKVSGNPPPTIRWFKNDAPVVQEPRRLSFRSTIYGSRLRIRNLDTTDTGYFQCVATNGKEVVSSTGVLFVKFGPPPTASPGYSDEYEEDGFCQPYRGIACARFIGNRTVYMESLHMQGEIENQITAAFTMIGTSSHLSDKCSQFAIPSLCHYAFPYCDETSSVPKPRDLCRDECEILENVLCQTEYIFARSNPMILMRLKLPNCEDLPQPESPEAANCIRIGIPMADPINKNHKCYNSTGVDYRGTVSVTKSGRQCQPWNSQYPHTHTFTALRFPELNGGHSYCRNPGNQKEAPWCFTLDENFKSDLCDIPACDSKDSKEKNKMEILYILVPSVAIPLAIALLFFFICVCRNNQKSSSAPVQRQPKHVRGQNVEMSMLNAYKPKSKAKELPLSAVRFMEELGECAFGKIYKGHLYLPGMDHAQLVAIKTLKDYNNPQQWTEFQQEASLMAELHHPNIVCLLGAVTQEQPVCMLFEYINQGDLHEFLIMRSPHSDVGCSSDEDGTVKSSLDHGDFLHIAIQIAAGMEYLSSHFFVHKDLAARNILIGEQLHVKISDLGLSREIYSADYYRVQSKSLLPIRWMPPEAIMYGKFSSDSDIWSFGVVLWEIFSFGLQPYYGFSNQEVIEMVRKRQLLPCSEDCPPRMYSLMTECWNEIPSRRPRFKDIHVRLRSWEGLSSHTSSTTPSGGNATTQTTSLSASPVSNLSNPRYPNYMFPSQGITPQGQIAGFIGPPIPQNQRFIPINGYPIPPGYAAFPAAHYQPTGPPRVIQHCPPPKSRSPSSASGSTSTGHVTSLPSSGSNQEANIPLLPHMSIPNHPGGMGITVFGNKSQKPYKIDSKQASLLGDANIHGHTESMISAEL
T3 sequence (Q01973 165-395 limits assumed): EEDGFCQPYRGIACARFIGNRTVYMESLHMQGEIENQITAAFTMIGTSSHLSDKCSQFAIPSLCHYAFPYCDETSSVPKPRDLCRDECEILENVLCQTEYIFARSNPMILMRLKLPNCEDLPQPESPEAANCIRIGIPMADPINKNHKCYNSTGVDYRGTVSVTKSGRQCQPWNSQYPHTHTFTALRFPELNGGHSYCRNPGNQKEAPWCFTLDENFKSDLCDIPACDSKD
T4 sequence (Q01973 165-305 limits assumed): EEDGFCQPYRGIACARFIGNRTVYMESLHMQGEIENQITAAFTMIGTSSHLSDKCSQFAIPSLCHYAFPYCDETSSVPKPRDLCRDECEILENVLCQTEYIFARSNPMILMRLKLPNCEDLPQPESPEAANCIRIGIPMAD

B1: P015042v1-3 (antibody, V domains shown)
VH: EVQLLESGGGLVQPGGSLRLSCAASGFTFSDYAMSWVRQAPGKGLEWVSVISSDGGSIYYADSVKGRFTISRDNSKNTLYLQMNSLRAEDTAVYYCAKDRSRDMEVDFDYWGQGTLVTVSS
VL: QSVLTQPPSASGTPGQRVTISCSGSSSNIGSNYVTWYQQLPGTAPKLLIYDASQRPSGVPDRFSGSKSGTSASLAISGLRSEDEADYYCGTWDYSLNGYVFGGGTKLTVL
notes: Variant of P015042v1, tested as IgG; also called LC S51 substituted with A
Regarding B1, the equilibrium dissociation constant (Kd) amounted to 0.127 nM with mouse ROR1 [1] and 0.0262 nM with human ROR1 [4]. The results for the koff with mouse ROR1 [1] and with human ROR1 [4] were 0.000548 s⁻¹ and 7.95e-05 s⁻¹, respectively. In addition, the kon is 4.3e+06 M⁻¹ s⁻¹ with mouse ROR1 [1] and 3.03e+06 M⁻¹ s⁻¹ in the assay with human ROR1 [4]. For the same molecule, the “EC50 (read off the curve)” value was roughly 0.3 nM with mouse ROR1 [2] and roughly 0.5 nM with human ROR1 [3].

B2: P015001 (antibody, V domains shown)
VH: EVQLLESGGGLAQPGGSLRLSCAASGFTFSNYDMSWVRQAPGKGPEWVSGIYSGNSNTYYADSVKGRFTISRDNSKNTLYLQMNSLRAEDTAVYYCARDLQYTEWAGFDYWGQGTLVTVSS
VL: QSVLTQPPSASGTPGQRVTISCSGSSSNIGSNDVTWYQQLPGTAPKLLIYDDSKRPSGVPDRFSGSKSGTSASLAISGLRSEDEADYYCAAWDDSLSGYVFGGGTKLTVL
B2: the binding result with FZD+KRD is recorded as “no binding (tested: 300 nM)”. Also, the binding result in the assay with FZD is recorded as “no binding (tested: 300 nM)”. In addition, in the assay with mouse ROR1 [1], binding was put at a Kd of 230 nM, the koff is 0.129 s⁻¹ and the kon turned out to be 564000 M⁻¹ s⁻¹. The “EC50 (read off the curve)” value with human ROR1 [3] was roughly 1 nM. In addition, in the assay with human ROR1 [4], binding was put at a Kd of 0.63 nM, the koff came out at 0.00264 s⁻¹ and the kon was determined as 4.18e+06 M⁻¹ s⁻¹.

B3: P015043 (antibody, V domains shown)
VH: EVQLLESGGGLVQPGGSLRLSCAASGFTFSNYDMSWVRQAPGKGLEWVSWISPGGSSIYYADSVKGRFTISRDNSKNTLYLQMNSLRAEDTAVYYCAKTLTRFDYWGQGTLVTVSS
VL: QSVLTQPPSASGTPGQRVTISCTGSSSNIGNNNVSWYQQLPGTAPKLLIYYDSHRPSGVPDRFSGSKSGTSASLAISGLRSEDEADYYCGTWDSSLSGYVFGGGTKLTVL
Turning to B3, in the assay with Ig-like, the binding result was “no binding (tested: 300 nM)”.

B4: P015002 (antibody, V domains shown)
VH: EVQLLESGGGLVQPGGSLRLSCAASGFTFSDYSMSWVRQAPGKGLEWVSGISHNGGSTYYADSVKGRFTISRDNSKNTLYLQMSSLRAEDTAVYYCARDVSRWSKTRWSYDNAMDVWGQGTLVTVSS
VL: QSVLTQPPSASGTPGQRVTISCTGSSSNIGSNYVSWYRQLPGTAPKLLIYSDSNRPSGVPDRFSGSKSGTSASLAISGLRSEDEADYYCATWDASLSAYVFGGGTKLTVL
Take B4: the binding result with Ig-like was “no binding (tested: 300 nM)”. For the same molecule, the dissociation constant Kd with mouse ROR1 [1] is 6 nM; with human ROR1 [4] it was 3.71 nM. Besides, the results for the koff with mouse ROR1 [1] and with human ROR1 [4] were 0.000278 s⁻¹ and 0.000202 s⁻¹, respectively. Moreover, the values for the association rate constant (kon) with mouse ROR1 [1] and with human ROR1 [4] were 46400 M⁻¹ s⁻¹ and 54300 M⁻¹ s⁻¹, respectively. The “EC50 (read off the curve)” value in the assay with mouse ROR1 [2] was roughly 3 nM; in the assay with human ROR1 [3], roughly 2 nM.

B5: P015042v1-5 (antibody, V domains shown)
VH: EVQLLESGGGLVQPGGSLRLSCAASGFTFSDYAMSWVRQAPGKGLEWVSVISSDGGSIYYADSVKGRFTISRDNSKNTLYLQMNSLRAEDTAVYYCAKDRSRDMEVDFDYWGQGTLVTVSS
VL: QSVLTQPPSASGTPGQRVTISCSGSSSNIGSNYVTWYQQLPGTAPKLLIYDSSQRPSGVPDRFSGSKSGTSASLAISGLRSEDEADYYCGTWDYSLNAYVFGGGTKLTVL
notes: Variant of P015042v1, tested as IgG; also called LC G95 substituted with A
Turning to B5, the results for the dissociation constant (Kd) with mouse ROR1 [1] and with human ROR1 [4] were 0.0416 nM and 0.00748 nM, respectively. Moreover, the figures for the koff in the assay with mouse ROR1 [1] and with human ROR1 [4] were 0.000106 s⁻¹ and 1.89e-05 s⁻¹, respectively. The on-rate (kon) was determined as 2.54e+06 M⁻¹ s⁻¹ with mouse ROR1 [1] and 2.53e+06 M⁻¹ s⁻¹ with human ROR1 [4]. Further, the “EC50 (read off the curve)” value with mouse ROR1 [2] was roughly 0.3 nM; with human ROR1 [3], roughly 0.5 nM.

B6: P015005 (antibody, V domains shown)
VH: EVQLLESGGGLVQPGGSLRLSCAASGFTFSDYSMSWVRQAPGKGLEWVSGISHNGGSTYYADSVKGRFTISRDNSKNTLYLQMSSLRAEDTAVYYCARDVSRWSKTRWSYDNAMDVWGQGTLVTVSS
VL: QSVLTQPPSASGTPGQRVTISCSGSSSNIGSNYVNWYQQLPGTAPKLLIYSDSHRPSGVPDRFSGSKSGTSASLAISGLRSEDEADYYCGSWDSSLNAYVLGGGTKLTVL
On to B6, for which, in the assay with Ig-like, the binding result is “no binding (tested: 300 nM)”. Further, the “EC50 (read off the curve)” value is roughly 6 nM with FZD+KRD, roughly 1 nM with mouse ROR1 [2] and roughly 1 nM in the assay with human ROR1 [3]. Besides, the values for the equilibrium dissociation constant (Kd) with mouse ROR1 [1] and with human ROR1 [4] were 0.833 nM and 0.4 nM, respectively. Moreover, the results for the koff in the assay with mouse ROR1 [1] and with human ROR1 [4] were 0.0001 s⁻¹ and 6.78e-05 s⁻¹, respectively. For the same molecule, the kon is 120000 M⁻¹ s⁻¹ with mouse ROR1 [1] and 169000 M⁻¹ s⁻¹ in the assay with human ROR1 [4].

B7: P015042v1-4 (antibody, V domains shown)
VH: EVQLLESGGGLVQPGGSLRLSCAASGFTFSDYAMSWVRQAPGKGLEWVSVISSDGGSIYYADSVKGRFTISRDNSKNTLYLQMNSLRAEDTAVYYCAKDRSRDMEVDFDYWGQGTLVTVSS
VL: QSVLTQPPSASGTPGQRVTISCSGSSSNIGSNYVTWYQQLPGTAPKLLIYDKSQRPSGVPDRFSGSKSGTSASLAISGLRSEDEADYYCGTWDYSLNGYVFGGGTKLTVL
notes: Variant of P015042v1, tested as IgG; also called LC S51 substituted with K
With B7, in the assay with mouse ROR1 [1], the Kd was determined as 0.132 nM, the koff amounted to 0.000282 s⁻¹ and the kon is 2.14e+06 M⁻¹ s⁻¹. For the same molecule, in the assay with mouse ROR1 [2], the “EC50 (read off the curve)” value is roughly 0.3 nM. The “EC50 (read off the curve)” value with human ROR1 [3] was roughly 0.5 nM. For the same molecule, in the assay with human ROR1 [4], the Kd turned out to be 0.0213 nM, the koff was 4.34e-05 s⁻¹ and the kon is 2.04e+06 M⁻¹ s⁻¹.

B8: P015044-vc-PAB-MMAE (antibody, IgG1, V domains shown)
VH: EVQLLESGGGLVQPGGSLRLSCAASGFTFSNYAMHWVRQAPGKGLEWVSIIYPDDDTRYNPSFRGRFTISRDNSKNTLYLQMNSLRAEDTAVYYCARDLLYAGDYWGQGTLVTVSS
VL: QSVLTQPPSASGTPGQRVTISCGGNNIESKAVHWYQQLPGTAPKLLIYANNKRPSGVPDRFSGSKSGTSASLAISGLRSEDEADYYCQSYDSNKVVFGGGTKLTVL
modifications: maleimidocaproyl-valine-citrulline-p-aminobenzyloxycarbonyl monomethyl auristatin E on cysteine sulfhydryls of reduced disulfides; positions not given; average 3.0 drugs per antibody
B8: in [5], the “Fold Change of IC50, AMB-LC-0002T/AMB-LC-0003T” value was 39.7 fold; the “IC50 (nM), spheroid volume, AMB-LC-0002T (low ROR1 expression)” value was 261 nM; the “IC50 (nM), spheroid volume, AMB-LC-0003T (high ROR1 expression)” value worked out at 6.59 nM. Also, in assay [6], the “Fold Change of IC50, AMB-LC-0002T/AMB-LC-0003T” value was 22.7 fold; the “IC50 (nM), spheroid volume after 6 days of treatment, AMB-LC-0003T (high ROR1 expression)” value turned out to be 5.38 nM; the “IC50 (nM), spheroid volume, AMB-LC-0002T (very low ROR1 expression)” value was determined as 122 nM.
